According to patent EP4786493A1:

What was measured:
[1] = biological target: human Claudin 18.2 expressed on cells (HEK293/human Claudin 18.2; CHO-K1/human Claudin 18.2) (human) (UniProt P56856); assay: cell-based or functional assay
[2] = biological target: human Claudin 18.2 expressed on cells (HEK293/human Claudin 18.2; CHO-K1/human Claudin 18.2) (human) (UniProt P56856); assay: flow cytometry on HEK293 cells expressing human Claudin 18.2
[3] = biological target: recombinant human Claudin 18.2 protein (GenScript, Z03504) (human) (UniProt P56856); assay: SPR Biacore 8K, antibody captured via Fc, human Claudin 18.2 protein as analyte
[4] = biological target: recombinant human Claudin 18.2 protein (GenScript, Z03504) (human) (UniProt P56856); assay: indirect ELISA, plate coated with recombinant human Claudin 18.2, anti-human IgG Fc-HRP detection
[5] = biological target: recombinant human Claudin 18.2 protein (GenScript, Z03504) (human) (UniProt P56856); assay: competition ELISA on coated recombinant human Claudin 18.2; unlabelled IMAB362 against biotinylated IMAB362 (0.72 µg/ml)

| Substance | ADCC reporter gene assay (CHO-K1/Claudin 18.2 target cells, GS-J2C/CD16A 158V effector cells): EC50 [1] | ADCC reporter gene assay (CHO-K1/Claudin 18.2 target cells, GS-J2C/CD16A 158V effector cells): Top [1] | CDC on CHO-K1/human Claudin 18.2 cells: EC50 [1] | CDC on CHO-K1/human Claudin 18.2 cells: Top [1] | EC50 [2] | Kd [3] | EC50 [4] | IC50 [5] |
| --- | --- | --- | --- | --- | --- | --- | --- | --- |
| Human IgG1 (antibody) | 352 nM | 90500 | 23.7 | 5.61% | – | – | – | – |
| Zolbetuximab (IMAB362, HuIgG1) (antibody) | 0.758 nM | 213000 | – | 93% | 7.8 nM | 39.3 nM | 1.53 nM | 1.79 nM |
